In US12275778 (dated 2025):
Where a chain is given by its changes, count along the chain named.

B1: Fab combination 21 (antibody, V domains shown)
VH: EVQLQQSGPELVKPGASVKMSCKASGYTFTDYYMKWVKQSHGKSLEWIGDINPNNGETWYNQKFKDKATLTVDKSSSTAYMQLNSLTSEDSAVYYCATRYFDYWGQGTTLTVSS
VL: DIVLTQSPASLAVSLGQRATISCKASQSVDYDGTSYMNWFQQKAGQPPKRLIYAASNLESGIPARFSGRGSGTDFALNIHPVEEEDAATYYCQQSNEDPYTFGGGTKLEIKR
B2: Fab combination 3 (antibody, V domains shown)
VH: B1 VH with Y33F
VL: B1 VL
B3: parental Fab (TnT M-7) (antibody, V domains shown)
VH: B1 VH with W59F, Y100V
VL: B1 VL
B4: Fab combination 23 (antibody, V domains shown)
VH: B1 VH with Y103F
VL: B1 VL
B5: Fab combination 16 (antibody, V domains shown)
VH: B1 VH with Y33I, W59F, Y103F
VL: B1 VL
B6: Fab combination 7 (antibody, V domains shown)
VH: B1 VH with Y33F, W59F, Y100V, Y103F
VL: B1 VL
B7: Fab combination 2 (antibody, V domains shown)
VH: B1 VH with Y33F, Y100V
VL: B1 VL
B8: Fab combination 12 (antibody, V domains shown)
VH: B1 VH with Y33I, Y100V, Y103F
VL: B1 VL
B9: Fab combination 19 (antibody, V domains shown)
VH: B1 VH with W59F, Y100V, Y103F
VL: B1 VL
B10: Fab combination 18 (antibody, V domains shown)
VH: B1 VH with W59F
VL: B1 VL
B11: Fab combination 15 (antibody, V domains shown)
VH: B1 VH with Y33I, W59F, Y100V, Y103F
VL: B1 VL
B12: Fab combination 5 (antibody, V domains shown)
VH: B1 VH with Y33F, Y103F
VL: B1 VL
B13: Fab combination 22 (antibody, V domains shown)
VH: B1 VH with Y100V, Y103F
VL: B1 VL
B14: Fab combination 8 (antibody, V domains shown)
VH: B1 VH with Y33F, W59F, Y103F
VL: B1 VL
B15: Fab combination 17 (antibody, V domains shown)
VH: B1 VH with Y100V
VL: B1 VL
B16: Fab combination 13 (antibody, V domains shown)
VH: B1 VH with Y33I, Y103F
VL: B1 VL
B17: Fab combination 11 (antibody, V domains shown)
VH: B1 VH with Y33I
VL: B1 VL
B18: Fab combination 4 (antibody, V domains shown)
VH: B1 VH with Y33F, Y100V, Y103F
VL: B1 VL
B19: Fab combination 1 (antibody, V domains shown)
VH: B1 VH with Y33F, W59F, Y100V
VL: B1 VL
B20: Fab combination 20 (antibody, V domains shown)
VH: B1 VH with W59F, Y103F
VL: B1 VL
B21: Fab combination 9 (antibody, V domains shown)
VH: B1 VH with Y33I, W59F, Y100V
VL: B1 VL

target: cardiac troponin T (recombinant human) (human); test: SPR, 37C

Row | Kd [pM] | Binder
1 | 1600 | B1
2 | 370 | B2
3 | 580 | B3
4 | 1200 | B4
5 | 3400 | B5
6 | 450 | B6
7 | 460 | B7
8 | 320 | B8
9 | 460 | B9
10 | 1600 | B10
11 | 1100 | B11
12 | 230 | B12
13 | 0.0038 | B13
14 | 200 | B14
15 | 540 | B15
16 | 620 | B16
17 | 1000 | B17
18 | 2.7 | B18
19 | 620 | B19
20 | 1100 | B20
21 | 1200 | B21
